# Earlier results, collected in US6660905B1, “Mice comprising engrafted functional human hepatocytes” (The Board of Trustees of the Leland Stanford Junior …, priority 1999, dated 2003).
substance,measurement,value
HGF: human hepatocyte growth factor,half-life,on the order of minutes
